B1: TPRG1 (parent)
chain: ETIQGFWLLTKIDHWNNEKERILL

Variants of: B1
Assay: protein stability index of a GFP-peptide fusion (GPS, HEK-293T) (PSI 1-6); higher = more stable
Settings: c terminus: a fixed tail appended
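Note: lentivirally expressed fusions sorted by FACS into six bins by GFP to DsRed ratio, PSI derived from sequencing read proportions per bin multiplied by bin number.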

Variant	protein stability index
ETIQGFWLLEKIDHWNNEKERILL	2.91
ETIQGFWLLAKIDHWNNEKERILL	3.73
ETIQGFWLLRKIDHWNNEKERILL	1.01
ETIQGFWLLYKIDHWNNEKERILL	2.44
ETIQGFWLLGKIDHWNNEKERILL	2.35
ETIQGFWLLWKIDHWNNEKERILL	2.45
ETIQGFWLLDKIDHWNNEKERILL	1.8
ETIQGFWLLSKIDHWNNEKERILL	2.49
ETIQGFWLLNKIDHWNNEKERILL	1.34
ETIQGFWLLFKIDHWNNEKERILL	1.96
ETIQGFWLLIKIDHWNNEKERILL	3.71
ETIQGFWLLPKIDHWNNEKERILL	1.65
ETIQGFWLLHKIDHWNNEKERILL	2.31
ETIQGFWLLTKIDHWNFEKERILL	2.36
ETIQGFWLLTKIDHWNIEKERILL	2.46
ETIQGFWLLTKIDHWNCEKERILL	2.54
ETIQGFWLLTKIDHWNQEKERILL	4.24
ETIQGFWLLTKIDHWNAEKERILL	2.33
ETIQGFWLLTKIDHWNVEKERILL	3.23
ETIQGFWLLTKIDHWNKEKERILL	3.22
ETIQGFWLLTKIDHWNMEKERILL	3.42
ETIQGFWLLTKIDHWNSEKERILL	2.2
ETIQGFWLLTKIDHWNTEKERILL	2.14
ETIQGFWLLTKIDHWNYEKERILL	3.59

Variant	protein stability index
ETIQGFWLLTKIDGWNNEKERILL	1.34
ETIQGFWLLTKIDWWNNEKERILL	2.98
ETIQGFWLLTKIDCWNNEKERILL	1.39
ETIQGFWLLTKIDMWNNEKERILL	2.37
ETIQGFWLLTKIDSWNNEKERILL	2.41
ETIQGFWLLTKIDIWNNEKERILL	2.49
ETIQGFWLLTKIDVWNNEKERILL	3.16
ETIQGFWLLTKIDRWNNEKERILL	4.13
ETIQGFWLLTKIDLWNNEKERILL	2.25
ETIQGFWLLTKIDDWNNEKERILL	2.88
ETIQGFWLLTKIDEWNNEKERILL	2.51
ETIQGFWLLTKIDFWNNEKERILL	2.41
ETIQGFWLLTKIDHWNNEKDRILL	3.18
ETIQGFWLLTKIDHWNNEKQRILL	2.27
ETIQGFWLLTKIDHWNNEKMRILL	3.33
ETIQGFWLLTKIDHWNNEKARILL	3.4
ETIQGFWLLTKIDHWNNEKPRILL	2.37
ETIQGFWLLTKIDHWNNEKKRILL	2.67
ETIQGFWLLTKIDHWNNEKLRILL	3.61
ETIQGFWLLTKIDHWNNEKNRILL	2.53
ETIQGFWLLTKIDHDNNEKERILL	1.62
ETIQGFWLLTKIDHKNNEKERILL	2.04
ETIQGFWLLTKIDHGNNEKERILL	4.15
ETIQGFWLLTKIDHQNNEKERILL	2.09

Variant	protein stability index
ETIQGFWLLTKIDHRNNEKERILL	3.5
ETIQGFWLLTKIDHPNNEKERILL	2.2
ETIQGFWLLTKIDHCNNEKERILL	1.56
ETIQGFWLLTKIDHNNNEKERILL	1.57
ETIQGFWLLTKIDHINNEKERILL	1.74
ETIQGFWLLTKIDHVNNEKERILL	2.49
ETIQGFWLLTKIDHHNNEKERILL	2.16
ETIQGFWLLTKIDHENNEKERILL	2.05
ETIQGFWLLTKINHWNNEKERILL	3.41
ETIQGFWLLTKIMHWNNEKERILL	1.04
ETIQGFWLLTKIPHWNNEKERILL	2.19
ETIQGFWLLTKIVHWNNEKERILL	2.29
ETIQGFWLLTKIWHWNNEKERILL	2.98
ETIQGFWLLTKIIHWNNEKERILL	3.03
ETIQGFWLLTKIKHWNNEKERILL	3.06
ETIQGFWLLTKIFHWNNEKERILL	2.23
ETIQGFWLLTKIQHWNNEKERILL	3.45
ETIQGFWLLTKIAHWNNEKERILL	3.1
ETIQGFWLLTKITHWNNEKERILL	1.69
ETIQGFWLLTKIDHWNNSKERILL	3.54
ETIQGFWLLTKIDHWNNAKERILL	2.8
ETIQGFWLLTKIDHWNNKKERILL	1.71
ETIQGFWLLTKIDHWNNLKERILL	3.57
ETIQGFWLLTKIDHWNNVKERILL	3.83

Variant	protein stability index
ETIQGFWLLTKIDHWNNWKERILL	2.03
ETIQGFWLLTKIDHWNNHKERILL	2.3
ETIQGFWLLTKIDHWNNCKERILL	2.45
ETIQGFWLLTKIDHWNNIKERILL	1.56
ETIQGFWLLTKIDHWNNNKERILL	2.14
ETIQGFWLLTKIDHWNNMKERILL	2.79
ETIQGFRLLTKIDHWNNEKERILL	2.23
ETIQGFTLLTKIDHWNNEKERILL	1.51
ETIQGFALLTKIDHWNNEKERILL	1.91
ETIQGFPLLTKIDHWNNEKERILL	2.56
ETIQGFKLLTKIDHWNNEKERILL	1.86
ETIQGFELLTKIDHWNNEKERILL	1.93
ETIQGFVLLTKIDHWNNEKERILL	3.28
ETIQGFMLLTKIDHWNNEKERILL	3.58
ETIQGFGLLTKIDHWNNEKERILL	2.31
ETIQGFCLLTKIDHWNNEKERILL	3.25
ETIQGFNLLTKIDHWNNEKERILL	2.18
ETIQGFQLLTKIDHWNNEKERILL	1.83
ETIQGFLLLTKIDHWNNEKERILL	2.08
ETIQGFSLLTKIDHWNNEKERILL	2.1
ETIQGFDLLTKIDHWNNEKERILL	2.25
ETIQGFHLLTKIDHWNNEKERILL	1.04
